Reference: patent US20220010017A1 (Bayer, published 2022)

Target: T1, human CEACAM6 (human, UniProt P40199 35-320)
T1 sequence (looked up): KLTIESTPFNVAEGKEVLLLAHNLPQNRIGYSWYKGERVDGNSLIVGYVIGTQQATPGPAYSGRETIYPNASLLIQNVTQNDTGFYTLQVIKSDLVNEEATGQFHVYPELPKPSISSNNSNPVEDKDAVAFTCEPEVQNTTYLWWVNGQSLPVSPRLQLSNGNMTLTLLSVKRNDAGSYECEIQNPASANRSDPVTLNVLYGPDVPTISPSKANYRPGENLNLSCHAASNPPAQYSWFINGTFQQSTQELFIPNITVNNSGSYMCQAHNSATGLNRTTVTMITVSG
Experiment: cell-based or functional assay

B1: TPP-3310 (antibody, human IgG2, kappa, V domains shown)
VH: QVTLRESGPALVKPTQTLTLTCTFSGFSLSTYGIGVGWIRQPPGKALEWLAHIWWNDNKYYSTSLKTRLTISKDTSKNQVVLTMTNMDPVDTATYYCARISLPYFDYWGQGTTLTVSS
VL: DIQLTQSPSFLSASVGDRVTITCKASQNVGTAVAWYQQKPGKAPKLLIYSASNRYTGVPSRFSGSGSGTEFTLTISSLQPEDFATYYCQQYSSYPLTFGGGTKVEIKR
half-maximal effective concentration (EC50) on the activation of T cells in co-culture: ~1 µg/mL
